Measured values published in the Human Domainome abundance scans (Beltran et al. 2025).
± gives the uncertainty stated by the source.

B1: TOX high mobility group box family member 3, residues 256 to 323; numbered along this chain, O15405 (parent)
chain: QKPVSAYALFFRDTQAAIKGQNPNATFGEVSKIVASMWDSLGEEQKQVYKRKTEAAKKEYLKALAAYR

Variants of: B1
Assay: abundance fitness (aPCA) (normalised: wild type 0, dead -1); higher = more abundant; growth selection in yeast, the domain comes from the species named
Settings: Homo sapiens

Row | Variant | abundance fitness
1 | G28A | -0.096 ± 0.065
2 | G28C | -0.046 ± 0.079
3 | G28H | -0.026 ± 0.098
4 | A35G | -0.122 ± 0.056
5 | A35D | -0.275 ± 0.12
6 | A35F | -0.375 ± 0.11
7 | A35Y | -0.197 ± 0.13
8 | L41C | -0.592 ± 0.11
9 | K62M | -0.205 ± 0.057
10 | K62V | -0.458 ± 0.059
11 | K62F | -0.519 ± 0.082
12 | K62Y | -0.396 ± 0.063
13 | K62W | -0.838 ± 0.11
14 | K62C | -0.3 ± 0.078
15 | E59Q | -0.205 ± 0.067
16 | E59R | -0.162 ± 0.053
17 | E59L | -0.39 ± 0.058
18 | E59G | -0.242 ± 0.071
19 | E59A | -0.122 ± 0.061
20 | E59F | -0.443 ± 0.14
21 | E59V | -0.3 ± 0.071
22 | T53E | 0.257 ± 0.063
23 | T53S | 0.113 ± 0.048
24 | T53N | -0.104 ± 0.056

Row | Variant | abundance fitness
25 | T53M | -0.046 ± 0.096
26 | T53C | -0.092 ± 0.063
27 | T53A | 0.136 ± 0.053
28 | T53V | 0.146 ± 0.047
29 | T53P | -0.326 ± 0.076
30 | Q15L | -0.13 ± 0.084
31 | Q15Y | 0.367 ± 0.34
32 | Q15S | -0.538 ± 0.18
33 | D13K | -0.646 ± 0.18
34 | D13T | -0.247 ± 0.089
35 | K52W | -0.617 ± 0.1
36 | K52P | -0.303 ± 0.079
37 | K52H | -0.272 ± 0.066
38 | K52G | -0.474 ± 0.072
39 | K52T | -0.426 ± 0.065
40 | R68T | -0.007 ± 0.078
41 | R68L | -0.126 ± 0.087
42 | R68H | -0.137 ± 0.17
43 | R68K | 0.101 ± 0.11
44 | A16S | -0.158 ± 0.055
45 | A16P | 0.067 ± 0.063
46 | A16L | -0.178 ± 0.059
47 | A63L | -0.395 ± 0.047
48 | A63F | -0.637 ± 0.22

Row | Variant | abundance fitness
49 | A63E | 0.285 ± 0.056
50 | A63G | 0.201 ± 0.044
51 | A63M | -0.178 ± 0.059
52 | A63I | -0.34 ± 0.076
53 | A63D | 0.08 ± 0.081
54 | A63H | 0.155 ± 0.079
55 | W38D | -0.789 ± 0.21
56 | W38M | -0.416 ± 0.098
57 | W38F | -0.716 ± 0.2
58 | W38T | -1.28 ± 0.37
59 | Q47Y | 0.029 ± 0.13
60 | Q47P | -0.812 ± 0.12
61 | Q47H | -0.232 ± 0.1
62 | Q47N | 0.102 ± 0.095
63 | Q47R | -0.032 ± 0.037
64 | Q47C | -0.195 ± 0.061
65 | L9M | -0.035 ± 0.081
66 | L9A | -0.042 ± 0.064
67 | L9V | -0.224 ± 0.077
68 | V30I | 0.014 ± 0.11
69 | V30A | -0.896 ± 0.28
70 | V30M | -0.162 ± 0.1
71 | V30S | -0.635 ± 0.099
72 | V30T | -0.342 ± 0.13

Row | Variant | abundance fitness
73 | V30G | -1.04 ± 0.17
74 | V48G | 0.505 ± 0.26
75 | V48I | -0.133 ± 0.19
76 | G42M | -0.613 ± 0.068
77 | G42V | -0.59 ± 0.079
78 | G42H | -0.075 ± 0.11
79 | Q21F | -0.444 ± 0.11
80 | Q21W | -0.388 ± 0.089
81 | Q21R | 0.042 ± 0.058
82 | Q21P | -0.722 ± 0.14
83 | S36Q | 0.164 ± 0.065
84 | S36H | -0.065 ± 0.11
85 | S36W | -0.671 ± 0.13
86 | K32L | -0.376 ± 0.054
87 | K32E | -0.167 ± 0.064
88 | K32R | -0.045 ± 0.057
89 | K32H | -0.286 ± 0.075
90 | I18N | -0.72 ± 0.41
91 | I18C | -0.685 ± 0.16
92 | I18P | -1.03 ± 0.18
93 | I18S | -0.682 ± 0.1
94 | I18L | -0.396 ± 0.082
95 | I18R | -0.707 ± 0.12
96 | I18K | -1.18 ± 0.43

Row | Variant | abundance fitness
97 | I18Y | 0.02 ± 0.25
98 | T14V | -0.147 ± 0.062
99 | T14R | -0.03 ± 0.065
100 | T14H | -0.453 ± 0.34
101 | T14A | -0.29 ± 0.11
102 | T14M | 0.048 ± 0.084
103 | T14D | -0.704 ± 0.17
104 | V34W | -0.92 ± 0.15
105 | V34D | -0.541 ± 0.32
106 | V34I | -0.149 ± 0.09
107 | V34F | -0.956 ± 0.17
108 | F27R | 0.077 ± 0.047
109 | F27A | 0.249 ± 0.057
110 | F27D | 0.133 ± 0.068
111 | F27E | 0.162 ± 0.072
112 | F27L | 0.051 ± 0.041
113 | F27T | 0.098 ± 0.069
114 | F27C | -0.188 ± 0.095
115 | E54D | -0.054 ± 0.068
116 | E54N | -0.117 ± 0.07
117 | L61T | 0.135 ± 0.065
118 | L61M | -0.138 ± 0.059
119 | L61S | 0.22 ± 0.049
120 | L61C | -0.014 ± 0.085

Row | Variant | abundance fitness
121 | L61F | -0.213 ± 0.058
122 | L61D | 0.319 ± 0.085
123 | L61N | -0.068 ± 0.13
124 | T26N | 0.03 ± 0.079
125 | T26P | -0.332 ± 0.071
126 | T26L | -0.544 ± 0.068
127 | T26W | -0.811 ± 0.14
128 | T26H | -0.161 ± 0.13
129 | A8S | 0.002 ± 0.065
130 | A8Q | 0.09 ± 0.081
131 | A8D | 0.039 ± 0.15
132 | A25H | -0.299 ± 0.084
133 | A25N | -0.677 ± 0.089
134 | A25W | -0.492 ± 0.26
135 | A25T | -0.363 ± 0.082
136 | A25V | -0.076 ± 0.067
137 | P23D | -0.922 ± 0.39
138 | P23T | -0.898 ± 0.23
139 | P23V | -0.677 ± 0.11
140 | P23N | -0.251 ± 0.15
141 | P23H | -0.615 ± 0.14
142 | P23K | -0.37 ± 0.11
143 | P23E | -0.558 ± 0.11
144 | P23L | -0.689 ± 0.085

Row | Variant | abundance fitness
145 | K2C | -0.434 ± 0.13
146 | K2N | -0.005 ± 0.1
147 | K2L | -0.428 ± 0.066
148 | K2R | -0.273 ± 0.064
149 | K2I | -0.003 ± 0.043
150 | K2W | -0.781 ± 0.15
151 | K2S | 0.069 ± 0.05
152 | N22R | -0.044 ± 0.057
153 | N22P | -0.824 ± 0.28
154 | N22D | -0.41 ± 0.31
155 | N22S | -0.451 ± 0.071
156 | N22E | -0.443 ± 0.14
157 | V4S | -0.112 ± 0.057
158 | V4R | -0.109 ± 0.043
159 | V4M | 0.159 ± 0.082
160 | V4I | 0.091 ± 0.072
161 | V4E | 0.155 ± 0.064
162 | S31Y | -0.162 ± 0.12
163 | S31W | -0.696 ± 0.15
164 | S31G | -0.224 ± 0.057
165 | D39W | -0.211 ± 0.074
166 | D39G | -0.21 ± 0.065
167 | D39Y | -0.231 ± 0.085
